Measurements from publication doi:10.1101/2021.11.09.467869 (bioRxiv, 2021).

Biological target: the molecule itself
Assay: SEC + other: negative-staining EM

B1: L6 TIR domain (L6^TIR), residues 26-231 (domain or fragment, UniProt Q40253 26-231, looked up)
chain: PNSKDSIVNDDDDSTSEVDAISDSTNPSGSFPSVEYEVFLSFRGPDTREQFTDFLYQSLRRYKIHTFRDDDELLKGKEIGPNLLRAIDQSKIYVPIISSGYADSKWCLMELAEIVRRQEEDPRRIILPIFYMVDPSDVRHQTGCYKKAFRKHANKFDGQTIQNWKDALKKVGDLKGWHIGKNDKQGAIADKVSADIWSHISKENLI
B1: binds.
